This experiment addresses hyaluronidase from bovine testes (bovine).

As for “NGT-M002 (pvFP-5; Perna viridis foot protein-5) (natural protein)”, the hyaluronidase inhibition rate (enzyme activity on hyaluronic acid, absorbance at 600 nm) at 500 μM sample, 1 U/mL hyaluronidase came to 91%.

The values are drawn from paper PMC12732409.
